Experimental data published in PMC2114528.
Read-outs that look alike come from different tables or passages of the source.

Key:
[1] = target: ECGF receptor (Mr 150,000 polypeptide) on LEII cells (mouse (endogenous in LEII cells)) (UniProt P16092); assay: radioligand binding
[2] = target: ECGF receptor (Mr 150,000 polypeptide) on LEII cells (mouse (endogenous in LEII cells)) (UniProt P16092); assay: radioligand binding; remark: listed apart in the source

Chain of UniProt P16092 (P16092 22-822): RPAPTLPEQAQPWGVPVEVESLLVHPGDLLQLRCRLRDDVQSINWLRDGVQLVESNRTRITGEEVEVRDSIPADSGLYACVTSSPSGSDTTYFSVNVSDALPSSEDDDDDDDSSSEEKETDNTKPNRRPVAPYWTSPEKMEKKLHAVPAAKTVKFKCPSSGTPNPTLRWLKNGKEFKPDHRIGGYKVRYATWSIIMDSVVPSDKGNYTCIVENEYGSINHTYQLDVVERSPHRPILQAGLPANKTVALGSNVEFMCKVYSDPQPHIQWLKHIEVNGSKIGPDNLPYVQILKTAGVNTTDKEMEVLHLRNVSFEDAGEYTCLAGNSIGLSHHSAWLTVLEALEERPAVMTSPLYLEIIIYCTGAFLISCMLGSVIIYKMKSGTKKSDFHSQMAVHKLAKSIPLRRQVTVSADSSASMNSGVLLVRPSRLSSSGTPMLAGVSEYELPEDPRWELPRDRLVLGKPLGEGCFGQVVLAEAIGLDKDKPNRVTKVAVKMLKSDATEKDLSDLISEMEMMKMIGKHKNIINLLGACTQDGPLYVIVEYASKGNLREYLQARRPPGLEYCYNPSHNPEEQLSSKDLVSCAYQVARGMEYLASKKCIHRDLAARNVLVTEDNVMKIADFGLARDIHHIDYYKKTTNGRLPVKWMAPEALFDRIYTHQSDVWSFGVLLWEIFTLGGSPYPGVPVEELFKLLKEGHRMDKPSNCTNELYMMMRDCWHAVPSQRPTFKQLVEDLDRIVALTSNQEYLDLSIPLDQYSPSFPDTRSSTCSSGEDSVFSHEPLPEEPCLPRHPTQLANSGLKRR

alpha-endothelial cell growth factor (ligand)
Kd [1]: 200 pM
Kd [2]: 250 pM
